This note sets out measurements from US20240270821A1, “GIP/GLP1/GCG TRI-RECEPTOR AGONISTS AND USES THEREOF” (priority 2023, published 2024).

Where a chain is given by its changes, count along the chain named.

What all share (test): cell-based or functional assay
One assay deals with hGLP-1R (Homo sapiens, UniProt P43220).
Assay [1] concerns the target T1, human GIP receptor (human) (UniProt P48546).
T1 sequence (looked up): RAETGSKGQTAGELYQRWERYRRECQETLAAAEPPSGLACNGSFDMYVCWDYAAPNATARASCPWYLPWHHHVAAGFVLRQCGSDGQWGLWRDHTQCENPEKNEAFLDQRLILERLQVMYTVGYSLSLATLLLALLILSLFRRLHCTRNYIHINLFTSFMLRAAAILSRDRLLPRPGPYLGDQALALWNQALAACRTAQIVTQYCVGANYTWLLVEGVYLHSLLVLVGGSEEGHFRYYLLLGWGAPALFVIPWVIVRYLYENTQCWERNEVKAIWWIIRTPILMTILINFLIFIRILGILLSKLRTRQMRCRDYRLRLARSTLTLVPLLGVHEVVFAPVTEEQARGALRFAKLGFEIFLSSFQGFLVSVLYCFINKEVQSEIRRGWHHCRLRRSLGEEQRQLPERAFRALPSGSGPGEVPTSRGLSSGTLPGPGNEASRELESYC

Assay [2] addresses human glucagon receptor (human) (UniProt P47871).

Sequence of human glucagon receptor (human) (P47871 26-477): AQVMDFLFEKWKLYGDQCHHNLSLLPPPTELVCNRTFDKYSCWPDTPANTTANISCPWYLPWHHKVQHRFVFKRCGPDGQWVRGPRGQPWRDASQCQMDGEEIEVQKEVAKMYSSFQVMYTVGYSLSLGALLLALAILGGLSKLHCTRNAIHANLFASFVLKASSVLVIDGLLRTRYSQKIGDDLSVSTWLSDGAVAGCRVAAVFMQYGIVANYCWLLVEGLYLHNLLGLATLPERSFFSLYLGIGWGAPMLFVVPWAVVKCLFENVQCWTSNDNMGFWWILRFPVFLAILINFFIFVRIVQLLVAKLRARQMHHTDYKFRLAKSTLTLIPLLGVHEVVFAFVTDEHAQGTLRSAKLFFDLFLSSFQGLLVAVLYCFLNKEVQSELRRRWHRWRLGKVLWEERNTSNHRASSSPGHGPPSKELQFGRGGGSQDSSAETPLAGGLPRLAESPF
Sequence of hGLP-1R (P43220 24-463): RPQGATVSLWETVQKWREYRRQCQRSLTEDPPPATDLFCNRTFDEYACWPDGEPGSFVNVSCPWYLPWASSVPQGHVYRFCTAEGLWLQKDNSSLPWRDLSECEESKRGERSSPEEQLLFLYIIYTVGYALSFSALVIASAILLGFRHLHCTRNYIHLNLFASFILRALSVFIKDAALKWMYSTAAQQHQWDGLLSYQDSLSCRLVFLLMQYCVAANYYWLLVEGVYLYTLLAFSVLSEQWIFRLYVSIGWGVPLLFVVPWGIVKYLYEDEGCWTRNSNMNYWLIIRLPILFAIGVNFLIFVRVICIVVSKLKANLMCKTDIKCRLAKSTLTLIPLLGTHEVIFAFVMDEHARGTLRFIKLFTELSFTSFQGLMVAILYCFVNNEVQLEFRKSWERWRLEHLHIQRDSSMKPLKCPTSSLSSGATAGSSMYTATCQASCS

B1: Example 235 (peptide)
chain: YXQGTFTSDFSXXLDKKAQXAFIEYLLEGGPSSGAXPPGGS
modifications: Aib, Orn, αMeL, Hyp; AEEA-γGlu-C18 diacid on Lys; C-terminal amide; synthetic construct; SITE 2: note = 2-Aminoisobutyric Acid; SITE 12: note = L-ornithine; SITE 13: note = alpha-methyl-leucine; SITE 17: note = Lysine is chemically modified through conjugation of the epsilon-amino group of the Lysine side chain with (2-[2-(2-Amino-ethoxy)-ethoxy]-acetyl)-(gamma-Glu)
B1: the Relative cAMP EC50 with hGLP-1R turned out to be 3.55 nM; in assay [1] it was 0.388 nM; in assay [2] it was 4.35 nM. For the same molecule, the values for the cAMP Rel EC50, nM (1% HSA) (with hGLP-1R; in assay [1]; in assay [2]) were 457 nM, 40.8 nM and 700 nM, respectively.

B2: Example 236 (peptide)
chain: B1 chain with X36P, P37X
modifications: Aib, Orn, αMeL, Hyp; acylated Lys; C-terminal amide; synthetic construct; SITE 2: note = 2-Aminoisobutyric Acid; SITE 12: note = L-ornithine; SITE 13: note = alpha-methyl-leucine; SITE 17: note = Lysine is chemically modified through conjugation of the epsilon-amino group of the Lysine side chain with (2-[2-(2-Amino-ethoxy)-ethoxy]-acetyl)-(gamma-Glu)
With B2, the Relative cAMP EC50 in the assay with hGLP-1R came out at 3.33 nM; in assay [1], 0.309 nM; in assay [2], 2.23 nM. Further, the cAMP Rel EC50, nM (1% HSA) with hGLP-1R was determined as 261 nM; in assay [1], 24.8 nM; in assay [2] it was 309 nM.

B3: Example 237 (peptide)
chain: B1 chain with X36P, P38X
modifications: non-natural residues; lipidated Lys AEEA-γGlu-C18 diacid; C-term amide; synthetic construct; SITE 2: note = 2-Aminoisobutyric Acid; SITE 12: note = L-ornithine; SITE 13: note = alpha-methyl-leucine; SITE 17: note = Lysine is chemically modified through conjugation of the epsilon-amino group of the Lysine side chain with (2-[2-(2-Amino-ethoxy)-ethoxy]-acetyl)-(gamma-Glu)
For B3, the Relative cAMP EC50 with hGLP-1R is 3.4 nM; in assay [1], 0.228 nM; in assay [2], 3.77 nM. The cAMP Rel EC50, nM (1% HSA) with hGLP-1R stood at 291 nM; in assay [1], 30.9 nM; in assay [2] it was 441 nM.

B4: Example 262 (peptide)
chain: B1 chain with Y25W, X36P, G39E, S41X
modifications: synthetic construct; SITE 2: note = 2-Aminoisobutyric Acid; SITE 12: note = L-ornithine; SITE 13: note = alpha-methyl-leucine; SITE 17: note = Lysine is chemically modified through conjugation of the epsilon-amino group of the Lysine side chain with (2-[2-(2-Amino-ethoxy)-ethoxy]-acetyl)-(gamma-Glu)
In the case of B4, the Relative cAMP EC50 was 4.39 nM in the assay with hGLP-1R, 0.232 nM in assay [1] and 9.77 nM in assay [2]. Moreover, the cAMP Rel EC50 (in the presence of 1% HSA) in the assay with hGLP-1R is 400 nM; in assay [1] it was 40.4 nM; in assay [2], 720 nM.

B5: Example 228 (peptide)
chain: YXQGTFTSDFSXXLDKKAQXAFIEYLIEXGESSGAPPPSGE
modifications: non-natural residues, acylated Lys, C-terminal amide; synthetic construct; SITE 2: note = 2-Aminoisobutyric Acid; SITE 12: note = L-ornithine; SITE 13: note = alpha-methyl-leucine; SITE 17: note = Lysine is chemically modified through conjugation of the epsilon-amino group of the Lysine side chain with (2-[2-(2-Amino-ethoxy)-ethoxy]-acetyl)-(gamma-Glu)
Consider B5, for which the results for the Relative cAMP EC50 (with hGLP-1R; in assay [1]; in assay [2]) were 1.52 nM, 0.147 nM and 1.38 nM, respectively.

B6: Example 146 (peptide)
chain: B5 chain with X12K, I27L, X29G, E41S
modifications: synthetic construct; SITE 2: note = 2-Aminoisobutyric Acid; SITE 13: note = alpha-methyl-leucine; SITE 17: note = Lysine is chemically modified through conjugation of the epsilon-amino group of the Lysine side chain with (2-[2-(2-Amino-ethoxy)-ethoxy]-acetyl)-(gamma-Glu)-CO-(CH2) 16-CO2H; SITE 20: n
In the case of B6, the cAMP Rel EC50, nM (in the presence of 1% HSA) with hGLP-1R was 678 nM; in assay [1] it was 74.6 nM; in assay [2] it was 463 nM.

B7: Example 267 (peptide)
chain: B5 chain with Y25W, I27L, X29G, E31X
modifications: synthetic construct; SITE 2: note = 2-Aminoisobutyric Acid; SITE 12: note = L-ornithine; SITE 13: note = alpha-methyl-leucine; SITE 17: note = Lysine is chemically modified through conjugation of the epsilon-amino group of the Lysine side chain with (2-[2-(2-Amino-ethoxy)-ethoxy]-acetyl)-(gamma-Glu)
As to B7, the Relative cAMP EC50 was 5.86 nM with hGLP-1R, 0.279 nM in assay [1] and 5.74 nM in assay [2]. Moreover, the cAMP Rel EC50 (in the presence of 1% HSA) in the assay with hGLP-1R was found to be 1020 nM; in assay [1], 55.5 nM; in assay [2], 1380 nM.

B8: Example 259 (peptide)
chain: B5 chain with I27L, X29A, E31P, E41H
modifications: synthetic construct; SITE 2: note = 2-Aminoisobutyric Acid; SITE 12: note = L-ornithine; SITE 13: note = alpha-methyl-leucine; SITE 17: note = Lysine is chemically modified through conjugation of the epsilon-amino group of the Lysine side chain with (2-[2-(2-Amino-ethoxy)-ethoxy]-acetyl)-(gamma-Glu)
Regarding B8, the Relative cAMP EC50 amounted to 1.47 nM with hGLP-1R, 0.114 nM in assay [1] and 2.55 nM in assay [2]. Moreover, the cAMP Rel EC50 (in the presence of 1% HSA) in the assay with hGLP-1R was 220 nM; in assay [1] it was 18.4 nM; in assay [2], 317 nM.

B9: Example 244 (peptide)
chain: B5 chain with I27L, E41S
modifications: Aib, Orn, αMeL; γGlu-AEEA-γGlu-C18 diacid on Lys; C-terminal amide; synthetic construct; SITE 2: note = 2-Aminoisobutyric Acid; SITE 12: note = L-ornithine; SITE 13: note = alpha-methyl-leucine; SITE 17: note = Lysine is chemically modified through conjugation of the epsilon-amino group of the Lysine side chain with (gamma-Glu)-(2-[2-(2-Amino-ethoxy)-ethoxy]-acetyl)
Regarding B9, the Relative cAMP EC50 with hGLP-1R worked out at 7.68 nM; in assay [1], 0.0972 nM; in assay [2], 4.81 nM. Further, the cAMP Rel EC50, nM (1% HSA) with hGLP-1R amounted to 645 nM; in assay [1], 18.8 nM; in assay [2] it was 1230 nM.

B10: Example 234 (peptide)
chain: B1 chain with P31X, X36P
modifications: Aib, Orn, αMeL, Hyp; lipidated Lys; C-terminal amide; synthetic construct; SITE 2: note = 2-Aminoisobutyric Acid; SITE 12: note = L-ornithine; SITE 13: note = alpha-methyl-leucine; SITE 17: note = Lysine is chemically modified through conjugation of the epsilon-amino group of the Lysine side chain with (2-[2-(2-Amino-ethoxy)-ethoxy]-acetyl)-(gamma-Glu)
In the case of B10, the Relative cAMP EC50 in the assay with hGLP-1R amounted to 4.72 nM; in assay [1] it was 0.322 nM; in assay [2], 7.87 nM. The figures for the cAMP Rel EC50, nM (1% HSA) (in the assay with hGLP-1R; in assay [1]; in assay [2]) were 604 nM, 31.1 nM and 702 nM, respectively.

B11: Example 264 (peptide)
chain: B5 chain with Y25W, I27L, E31S, E41T
modifications: synthetic construct; SITE 2: note = 2-Aminoisobutyric Acid; SITE 12: note = L-ornithine; SITE 13: note = alpha-methyl-leucine; SITE 17: note = Lysine is chemically modified through conjugation of the epsilon-amino group of the Lysine side chain with (2-[2-(2-Amino-ethoxy)-ethoxy]-acetyl)-(gamma-Glu)
With B11, the Relative cAMP EC50 with hGLP-1R is 4.67 nM; in assay [1] it was 0.0884 nM; in assay [2], 6.29 nM. The cAMP Rel EC50 (in the presence of 1% HSA) is 688 nM with hGLP-1R, 12.4 nM in assay [1] and 1000 nM in assay [2].

B12: Example 268 (peptide)
chain: B5 chain with Y25W, I27L, X29G, E31X, E41T
modifications: synthetic construct; SITE 2: note = 2-Aminoisobutyric Acid; SITE 12: note = L-ornithine; SITE 13: note = alpha-methyl-leucine; SITE 17: note = Lysine is chemically modified through conjugation of the epsilon-amino group of the Lysine side chain with (2-[2-(2-Amino-ethoxy)-ethoxy]-acetyl)-(gamma-Glu)
Regarding B12, the results for the Relative cAMP EC50 (in the assay with hGLP-1R; in assay [1]; in assay [2]) were 3.14 nM, 0.274 nM and 7.69 nM, respectively. The cAMP Rel EC50 (in the presence of 1% HSA) is 437 nM with hGLP-1R, 33.7 nM in assay [1] and 1300 nM in assay [2].
